The values below are quoted from earlier work in publication PMC5626786.

The target in this data set is Ark1p peptide (Saccharomyces cerevisiae) (UniProt P53974).
UniProt P53974, sequence (P53974 whole entry): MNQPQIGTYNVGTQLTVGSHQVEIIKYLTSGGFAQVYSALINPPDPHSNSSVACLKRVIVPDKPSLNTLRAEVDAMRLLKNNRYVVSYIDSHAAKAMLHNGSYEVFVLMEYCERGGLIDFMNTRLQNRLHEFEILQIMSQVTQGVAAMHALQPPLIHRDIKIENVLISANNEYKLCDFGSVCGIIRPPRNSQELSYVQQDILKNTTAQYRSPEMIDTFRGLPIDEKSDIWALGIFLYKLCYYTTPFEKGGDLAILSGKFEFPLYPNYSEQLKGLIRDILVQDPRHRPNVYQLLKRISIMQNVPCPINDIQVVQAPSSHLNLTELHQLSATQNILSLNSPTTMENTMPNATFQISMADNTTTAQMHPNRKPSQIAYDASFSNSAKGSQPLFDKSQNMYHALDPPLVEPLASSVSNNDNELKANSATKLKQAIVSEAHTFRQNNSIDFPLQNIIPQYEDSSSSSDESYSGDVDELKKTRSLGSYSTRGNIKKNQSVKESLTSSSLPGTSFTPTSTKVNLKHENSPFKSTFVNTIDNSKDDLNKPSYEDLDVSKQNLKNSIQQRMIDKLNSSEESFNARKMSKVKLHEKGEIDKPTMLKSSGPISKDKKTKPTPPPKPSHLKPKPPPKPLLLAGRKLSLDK

In the case of Abp1p SH3 (from UniProt P15891), the Kd was 4.4 µM.

Broadly, the Kd is the free concentration of one partner at which half of the binding sites on the other are occupied at equilibrium, for simple one-to-one binding.
